This is an account of results in the supplement of paper PMC10567573.

± gives the standard deviation.

The data set is described as follows: protein stability index of a GFP-peptide fusion (GPS, HEK-293T) (PSI 1-6); higher = more stable.
Setting [1] is: treatment: DMSO, c terminus: a fixed tail appended.
The mark [2] stands for this setting: treatment: MLN4924 1 uM, 8 h, c terminus: a fixed tail appended.
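Note: 24-mer peptide tiles fused after GFP, lentivirally expressed, FACS-sorted into six equal bins by GFP/DsRed ratio, decoded by Illumina sequencing, PSI is the read-weighted mean bin number.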

For RVHAGSKAALAALCPGDLIQAING [PDLIM4], the protein stability index by setting is: under setting [1], 2.95 ± 0.15; under setting [2], 3.03 ± 0.12.
For the sequence LAGTFHYYSCERAKKAMGYQPLVT [NSDHL], the protein stability index was determined as 2.2 ± 0.12 under setting [1] and 2.27 ± 0.13 under setting [2].
Taken in the same sequence, the figures for MADCILVNSQFTAAVFKETFKSLS [ALG2] were 2.66 ± 0.42 and 2.73 ± 0.55.
Regarding QQLRRGRYVEFNLLYDRGTKFGLF [CPOX], the protein stability index turned out to be 2.52 ± 0.51 under setting [1] and 2.56 ± 0.36 under setting [2].
The corresponding values for LRQLVESDINSLRRILDELTLCRS [KRT33B] are 2.31 ± 0.14 and 2.41 ± 0.15.
The corresponding values for VLLLGSVDGRHLLRTLSRAKFWPR [DNAAF3] are 2.08 ± 0.36 and 2.27 ± 0.15.
Taken in the same sequence, the figures for PEKHQVPEKLIWGDQDPLSKIPFK [WDR88] were 3.72 ± 0.22 and 4.26 ± 0.38.
The sequence GNPFLDVPQALSATTYKHGVLTRK [PSD2] returned a protein stability index under setting [1] of 4.08 ± 0.3 and a protein stability index under setting [2] of 4.18 ± 0.4.
PRLCYLVKEGGSYGFSLKTVQGKK [PDZK1] came in with a protein stability index under setting [1] of 3.02 ± 0.12.
On to IKPSENHYSLLTSQPLDREATSHY [PCDHGC5], for which the protein stability index was determined as 3.87 ± 0.062 under setting [1] and 3.93 ± 0.38 under setting [2].
Consider ITVAELREAVPALLGEPLAGPELD [CABP4], for which the protein stability index under setting [1] was found to be 3.7 ± 0.39 and the protein stability index under setting [2] was determined as 3.84 ± 0.44.
Consider PESQMCRKFSRECEDQKQIKKPES [NEUROD6], for which the protein stability index runs as follows: under setting [1], 5.09 ± 0.38; under setting [2], 5.31 ± 0.22.
The corresponding values for AARAGHVCTVQFLISKGANVNRTT [ANKRD17] are 1.83 ± 0.32 and 2.07 ± 0.21.
On to YWKDTRTSGVVFTGLMVSLLCLLH [RTN2], for which the protein stability index worked out at 2.3 ± 0.24 under setting [1] and 2.2 ± 0.28 under setting [2].
Sequence TLKRGYFQKSLVLISKLPYIHFFH [DENND6A] registered a protein stability index under setting [1] of 3.11 ± 0.73 and a protein stability index under setting [2] of 2.7 ± 0.3.
Taken in the same sequence, the figures for WGFGLEELYGLALRFFKEKDGKAF [ACBD3] were 2.4 ± 0.12 and 2.39 ± 0.61.
Consider RFSRQCVVDKDKRNQCRYCRLKKC [HNF4A], for which the protein stability index was 3.22 ± 0.46 under setting [1] and 3.5 ± 0.61 under setting [2].
The corresponding values for ELNNCISMLVAGNDRVQTIITQLE [TRIM63] are 2.25 ± 0.39 and 2.38 ± 0.11.
On to EWVLSTGQDKQFAWHCSESGQRLG [WDFY2], for which the protein stability index by setting is: under setting [1], 3.21 ± 0.23; under setting [2], 3.05 ± 0.2.
The corresponding values for SRSRSRSRSNSRSRSYSPRRSRGS [SRSF1] are 5.37 ± 0.24 and 5.6 ± 0.2.
Taken in the same sequence, the figures for RKRAVPCGACLTQLFFFHLFVGVD [OR3A1] were 2.82 ± 0.3 and 2.74 ± 0.45.
Taken in the same sequence, the figures for MNLMNELKQNFSKSWHDMQTTTAY [TPD52L1] were 2.62 ± 0.34 and 2.47 ± 0.15.
As for WDLSEAWMQANYDPLSDSDSMTSQ [ELOA2], the protein stability index under setting [1] is 4.34 ± 0.33 and the protein stability index under setting [2] came out at 4.45 ± 0.21.
The corresponding values for HAVSTCHFCVDDTKLLSGSYDCTV [WDR88] are 2.46 ± 0.26 and 2.44 ± 0.33.
Taken in the same sequence, the figures for GDVPPSMSGSCAVCVDRVLYLFGG [KLHDC2] were 2.74 ± 0.79 and 2.47 ± 0.55.
The corresponding values for EQRANDLEQIMESVKSKIGELEDE [CEP70] are 5.41 ± 0.098 and 5.39 ± 0.18.
Take HVGWLLVRKHPAVKEKGSTLDLSD [SCD]: the protein stability index is 2.3 ± 0.26 under setting [1] and 2.48 ± 0.45 under setting [2].
Turning to APRFNQQLYTAYILENRPPGSLLC [PCDHGC5], the protein stability index under setting [1] is 2.1 ± 0.2 and the protein stability index under setting [2] amounted to 2.07 ± 0.28.
LKIYNKREEDFPSLREYNDFLEEV [MNAT1]: the protein stability index runs as follows: under setting [1], 3.19 ± 0.39; under setting [2], 3.68 ± 0.72.
Take AFQAFTNDLLEILEIDDLDAIVPA [CEP70]: the protein stability index was found to be 2.73 ± 0.22 under setting [1] and 2.73 ± 0.5 under setting [2].
Taken in the same sequence, the figures for ILSLEGGYNLRALAEGVSASLHTL [HDAC6] were 2.15 ± 0.79 and 2.12 ± 0.39.
Taken in the same sequence, the figures for PQQHFLEEKQASLWVQGDIFRSKL [CDC14A] were 3.12 ± 0.18 and 3.14 ± 0.28.
Taken in the same sequence, the figures for GYTFGQDISETFNHANGLTLVSRA [PPP2CA] were 3.26 ± 0.3 and 3.19 ± 0.28.
With CATVGNRGFVFGGRYRDARMNDLH [KLHDC2], the protein stability index runs as follows: under setting [1], 2.19 ± 0.36; under setting [2], 2.05 ± 0.19.
Consider FQILLLSDPSTIEASNFQMDRKTR [PNLIPRP1], for which the protein stability index under setting [1] came out at 2.03 ± 0.43 and the protein stability index under setting [2] came out at 2.42 ± 0.28.
Regarding RHIHHLGNQLQLNQHCLDTAFNFF [BRF1], the protein stability index is, setting by setting: under setting [1], 2.29 ± 0.23; under setting [2], 2.3 ± 0.16.
CINRFQQVESRWGYSGTSDRIRFT [BTBD1]: the protein stability index under setting [1] is 1.8 ± 0.12 and the protein stability index under setting [2] was found to be 2.07 ± 0.31.
Regarding SDDLERTIEERVNILFDFVKKKKE [EIF5], the protein stability index came out at 3.97 ± 0.19 under setting [1] and 4.2 ± 0.32 under setting [2].
Regarding PYQCSQCSKSYSRRSFLIEHQRSH [ZSCAN9], the protein stability index under setting [1] was 4.3 ± 0.2 and the protein stability index under setting [2] was found to be 4.45 ± 0.43.
Taken in the same sequence, the figures for EPASESVVGALPAEHQFSFMEKRN [TRAF3IP2] were 4.71 ± 0.26 and 4.98 ± 0.27.
Taken in the same sequence, the figures for PPAPAPLPPPSAPSLQPSRKLSPT [SCAMP3] were 5.34 ± 0.25 and 5.32 ± 0.12.
In the case of DCMAALGLAYDRKKVSKAAILARI [SCD], the protein stability index reads like this: under setting [1], 1.94 ± 0.3; under setting [2], 2.29 ± 0.2.
The corresponding values for QNIQSWSNHSWNTQTWCTQSWNNQ [NANOGP8] are 2.53 ± 0.37 and 2.61 ± 0.24.
The corresponding values for EDVDTSQVLYEWEQGFSQSFTQEQ [CTNNB1] are 5.03 ± 0.23 and 5.07 ± 0.21.
Taken in the same sequence, the figures for SEASKAFQMEKIEHGYENMNHFTV [TRIM55] were 3.29 ± 0.21 and 3.38 ± 0.28.
As for EEDNVEESEEEGPWEPPVLPILTW [HDAC6], the protein stability index runs as follows: under setting [1], 4.33 ± 0.29; under setting [2], 4.62 ± 0.3.
In the case of RVKREFEPASAREAPASVVPFVRV [USP39], the protein stability index was 3.33 ± 0.57 under setting [1] and 3.5 ± 0.24 under setting [2].
The corresponding values for TELRLLGRTHSACDALRTLAEARR [RSAD1] are 3.46 ± 0.21 and 3.59 ± 0.18.
RLRASFSRKPSLKGNREDSARMSA [PLEKHN1] yielded a protein stability index under setting [1] of 4.08 ± 0.21 and a protein stability index under setting [2] of 4.21 ± 0.078.
The corresponding values for AVFIALLPILGHRDYKIQASRTWC [PTGFR] are 2.95 ± 0.64 and 2.81 ± 1.1.
The corresponding values for RRGRSPKGEFKDEEETVTTKHIHI [CLINT1] are 4.78 ± 0.14 and 4.73 ± 0.26.
The corresponding values for ENKESWDKILALVPETIHDELQQS [PRIM1] are 4.82 ± 0.3 and 4.72 ± 0.39.
Consider KGFSHLDVMLVECYDPKGDQWNIL [KLHL14], for which the protein stability index came out at 2.82 ± 0.6 under setting [1] and 2.9 ± 0.68 under setting [2].
Taken in the same sequence, the figures for EELSVLEVFEGREDSIFGDPKKLL [MAGEA6] were 4.22 ± 0.35 and 4.32 ± 0.28.
Taken in the same sequence, the figures for WKEWGFTGVQEVLSALLRATPGEY [SPAG8] were 2.06 ± 0.78 and 2.2 ± 0.53.
YLHTNVALVAPLLRLENNHCHIEE [VPS39] gave a protein stability index under setting [1] of 2.33 ± 0.2 and a protein stability index under setting [2] of 2.74 ± 0.34.
Take TEQLWRIFAGVHDEKAKPRDRQQA [TLE6]: the protein stability index stood at 3.45 ± 0.26 under setting [1] and 3.76 ± 0.23 under setting [2].
The corresponding values for ILTERVSLPFKPFAIILPILLNIR [MIA2] are 2.25 ± 0.55 and 3.79 ± 0.64.
In the case of NLNAATDDPENKKTSSSSKAGFTA [CDC14A], the protein stability index reads like this: under setting [1], 5.17 ± 0.16; under setting [2], 5.02 ± 0.062.
With ISVLQQQGSLSNTYLSKVDPDGKK [FBXO33], the protein stability index by setting is: under setting [1], 4.45 ± 0.18; under setting [2], 4.46 ± 0.2.
On to KFRAKGRKPCKLMLQVVKILVVTV [MCOLN1], for which the protein stability index was found to be 2.51 ± 0.39 under setting [1] and 2.16 ± 0.19 under setting [2].
MAESLRSPRRSLYKLVGSPPWKEA [RPAIN] displayed a protein stability index under setting [1] of 2.73 ± 0.48 and a protein stability index under setting [2] of 2.77 ± 0.53.
The corresponding values for LRLCAWGLASWPLARGIHVAGILS [POMT2] are 2.3 ± 0.26 and 2.22 ± 0.2.
The corresponding values for LRDEHRCASKYGRDWERYTAAVPY [DHCR7] are 2.67 ± 0.12 and 2.92 ± 0.2.
As for PPTLQEAGLSHTEVLFVQDLTDE [FAF2], the protein stability index runs as follows: (treatment: DMSO, c terminus: native) 4.88 ± 0.25; (treatment: MLN4924 1 uM, 8 h, c terminus: native) 4.92 ± 0.15.
RSETFLEVWGNALLRPPVAAFVRA [DNAAF3] gave a protein stability index under setting [1] of 2.22 ± 0.21 and a protein stability index under setting [2] of 2.34 ± 0.13.
Taken in the same sequence, the figures for CAGPGFTHNIAHGSLGFEPVYVSC [SPAG8] were 2.48 ± 0.75 and 2.49 ± 0.64.
Regarding QLHKPLAEGTPRSNHSAQDSAVEN [IKZF1], the protein stability index by setting is: under setting [1], 5.35 ± 0.35; under setting [2], 5.39 ± 0.3.
As for IIDNTNLHAWEMKPYAVMVFQTEQ [N4BP2L1], the protein stability index worked out at 2.15 ± 0.25 under setting [1] and 2.09 ± 0.18 under setting [2].
As to IQQTTRYFSTPQTMDLFLNYSMNM [NANOGP8], the protein stability index is, setting by setting: under setting [1], 2.7 ± 0.48; under setting [2], 2.58 ± 0.58.
Taken in the same sequence, the figures for AVCKATTHEVMGPKKKHLDYLIQA [SNAP91] were 3.06 ± 0.29 and 2.96 ± 0.14.
The corresponding values for VGMNFLHCMAPPLLHLDLKPANIL [RIPK4] are 2.73 ± 0.57 and 2.14 ± 0.63.
